Test results taken from patent publication US8889827B2, “Opiorphin peptide derivatives as potent inhibitors of enkephalin-degrading ectopeptidases” (Institut Pasteur, priority 2008, dated 2014).
Non-standard residues stand in square brackets, D forms with d. No end group written: not given here.

Columns and labels:
Format in all cases: biochemical
recombinant human AP-N = target: T1, recombinant human AP-N (Homo sapiens, UniProt P15144); assay: AP-N-ectopeptidase activity, Ala-Mca substrate; settings: for inhibitory preference for human AP-N (in words): screening at 50 μM, AP-N versus NEP; for inhibitory potency towards human AP-N (in words): screening, 50 μM final concentration, triplicate
T1 construct: devoid of their respective N-terminal cytosol and transmembrane segment; purchased R&D Systems
T1 sequence (P15144 33-967 limits assumed): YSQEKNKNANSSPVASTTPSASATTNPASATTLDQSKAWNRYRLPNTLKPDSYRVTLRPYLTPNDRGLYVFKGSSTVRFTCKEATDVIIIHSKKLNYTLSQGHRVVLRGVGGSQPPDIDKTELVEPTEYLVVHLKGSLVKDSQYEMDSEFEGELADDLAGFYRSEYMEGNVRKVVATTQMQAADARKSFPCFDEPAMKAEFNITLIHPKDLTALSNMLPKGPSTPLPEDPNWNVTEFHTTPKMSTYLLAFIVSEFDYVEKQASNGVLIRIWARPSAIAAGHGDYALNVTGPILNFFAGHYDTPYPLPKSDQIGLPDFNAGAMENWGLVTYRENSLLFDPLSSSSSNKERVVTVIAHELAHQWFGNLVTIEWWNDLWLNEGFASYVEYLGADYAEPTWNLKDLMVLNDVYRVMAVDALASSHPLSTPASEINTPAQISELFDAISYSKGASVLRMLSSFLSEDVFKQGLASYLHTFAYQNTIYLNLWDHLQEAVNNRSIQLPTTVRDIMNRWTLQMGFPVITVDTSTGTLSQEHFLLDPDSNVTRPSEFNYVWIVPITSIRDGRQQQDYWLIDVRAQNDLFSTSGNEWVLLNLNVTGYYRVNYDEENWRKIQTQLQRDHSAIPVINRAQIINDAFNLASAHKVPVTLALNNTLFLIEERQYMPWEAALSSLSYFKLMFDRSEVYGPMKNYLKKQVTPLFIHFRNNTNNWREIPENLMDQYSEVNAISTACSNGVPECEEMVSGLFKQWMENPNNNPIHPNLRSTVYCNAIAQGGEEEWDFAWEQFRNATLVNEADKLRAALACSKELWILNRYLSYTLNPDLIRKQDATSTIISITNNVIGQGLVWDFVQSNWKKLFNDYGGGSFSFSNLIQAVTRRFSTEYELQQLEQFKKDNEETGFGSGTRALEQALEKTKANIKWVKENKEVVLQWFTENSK
Description: (§1) Formal kinetic analysis was performed for each assay using real-time fluorescence monitoring of specific substrate hydrolysis.
(§2) Recombinant human NEP and recombinant human AP-N (devoid of their respective N-terminal cytosol and transmembrane segment) that were purchased from R&D Systems, were used as pure source of peptidase.
FRET is the distance-dependant transfer of energy from a donor fluorophore (Abz=ortho-aminobenzoyl or Mca=7-methoxycoumarin-4-yl-acetyl) to an acceptor fluorophore (DnpOH=2,4-dinitrophenyl or EDDnp=2,4-dinitrophenyl ethylenediamine). • L-alanine-Mca, Ala-Mca, a fluorogenic substrate for measuring aminopeptidase activity was purchased from Sigma.
(§3) According to conditions of initial velocity measurement: the time, pH and temperature of incubation as well as enzyme and substrate concentrations were defined for each assay. Hydrolysis of substrates was measured by real-time monitoring their metabolism rate by the two peptidases in the presence and absence of tested inhibitory compound (concentrations ranging from 1 to 50 μM). These were added to the preincubation medium. The background rate of substrate autolysis representing the fluorescent signal obtained in the absence of enzyme was subtracted to calculate the initial velocities in RFU (Relative Fluorescent Unit)/min.
Measurement of AP-N-ectopeptidase activity using Ala-Mca substrate. Using black half-area 96 well microplate the standard reaction consisted of enzyme (4 ng) in 100 mM Tris-HCl pH 7.0 (100 μl final volume).
(§4) Compounds were tested in triplicate at 50 μM final concentration.

human NEP = target: T2, human NEP (Homo sapiens, UniProt P08473); assay: Screening of opiorphin peptide-derivatives on hNEP (endopeptidase and carboxydipeptidase activities); settings: for inhibitory potency towards human NEP (in words): screening, 50 μM final concentration, triplicate
T2 construct: devoid of their respective N-terminal cytosol and transmembrane segment; purchased R&D Systems
T2 sequence (P08473 52-750 limits assumed): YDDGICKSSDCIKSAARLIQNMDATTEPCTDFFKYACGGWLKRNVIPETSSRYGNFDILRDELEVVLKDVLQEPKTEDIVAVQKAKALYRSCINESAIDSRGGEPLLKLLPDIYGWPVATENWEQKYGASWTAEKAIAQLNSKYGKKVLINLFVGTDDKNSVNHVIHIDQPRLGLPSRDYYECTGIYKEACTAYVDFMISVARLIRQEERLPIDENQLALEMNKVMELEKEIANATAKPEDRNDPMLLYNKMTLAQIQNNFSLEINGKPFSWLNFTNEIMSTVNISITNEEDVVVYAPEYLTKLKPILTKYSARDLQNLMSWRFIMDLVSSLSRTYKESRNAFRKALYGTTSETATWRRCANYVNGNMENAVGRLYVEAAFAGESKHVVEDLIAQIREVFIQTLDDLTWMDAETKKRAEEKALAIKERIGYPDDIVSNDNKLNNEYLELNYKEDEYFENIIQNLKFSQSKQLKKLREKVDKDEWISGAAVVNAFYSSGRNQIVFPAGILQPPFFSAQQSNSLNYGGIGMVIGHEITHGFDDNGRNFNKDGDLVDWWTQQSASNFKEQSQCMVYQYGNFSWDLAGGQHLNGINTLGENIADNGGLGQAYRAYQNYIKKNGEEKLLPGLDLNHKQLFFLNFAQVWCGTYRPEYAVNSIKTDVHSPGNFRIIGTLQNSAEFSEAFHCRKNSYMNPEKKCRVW
Description: as §3
(§5) (2.3 min-interval successive measures) by using a fluorimeter microplate reader (monochromator Infinite 200-Tecan) at 320 nm and 420 nm excitation and emission wavelengths, respectively.
Using black half-area 96 well microplate, the standard reaction consisted of enzyme (2.5 ng) in 100 mM Tris-HCl pH 6.5 containing 50 mM NaCl (100 μl final volume). The substrate (4 μM final concentration) was added after preincubation for 10 min and the kinetics of appearance of the fluorescent signal (RFU) was directly analyzed for 40 min at 28° C. (2.3 min-interval successive measures) by using the fluorimeter reader at 320 nm excitation and 420 nm emission wavelengths.
In addition, the intramolecularly quenched fluorogenic peptide, Mca-BK2 (10 μM), was submitted to hydrolysis by 5 ng rhNEP under the same experimental conditions as those described behind.
as §4

[1] = target: T3, membrane-bound human NEP expressed by LNCaP epithelial cells (Homo sapiens, UniProt P08473); assay: Substance P cleavage by membrane-bound hNEP of human cell membranes; settings: increase vs Opiorphin native peptide in the same test
T3 construct: human cell membranes as source of hNEP; endogenous in cells; host or cells: LNCaP epithelial cells (membranes)
T3 sequence (P08473 whole entry): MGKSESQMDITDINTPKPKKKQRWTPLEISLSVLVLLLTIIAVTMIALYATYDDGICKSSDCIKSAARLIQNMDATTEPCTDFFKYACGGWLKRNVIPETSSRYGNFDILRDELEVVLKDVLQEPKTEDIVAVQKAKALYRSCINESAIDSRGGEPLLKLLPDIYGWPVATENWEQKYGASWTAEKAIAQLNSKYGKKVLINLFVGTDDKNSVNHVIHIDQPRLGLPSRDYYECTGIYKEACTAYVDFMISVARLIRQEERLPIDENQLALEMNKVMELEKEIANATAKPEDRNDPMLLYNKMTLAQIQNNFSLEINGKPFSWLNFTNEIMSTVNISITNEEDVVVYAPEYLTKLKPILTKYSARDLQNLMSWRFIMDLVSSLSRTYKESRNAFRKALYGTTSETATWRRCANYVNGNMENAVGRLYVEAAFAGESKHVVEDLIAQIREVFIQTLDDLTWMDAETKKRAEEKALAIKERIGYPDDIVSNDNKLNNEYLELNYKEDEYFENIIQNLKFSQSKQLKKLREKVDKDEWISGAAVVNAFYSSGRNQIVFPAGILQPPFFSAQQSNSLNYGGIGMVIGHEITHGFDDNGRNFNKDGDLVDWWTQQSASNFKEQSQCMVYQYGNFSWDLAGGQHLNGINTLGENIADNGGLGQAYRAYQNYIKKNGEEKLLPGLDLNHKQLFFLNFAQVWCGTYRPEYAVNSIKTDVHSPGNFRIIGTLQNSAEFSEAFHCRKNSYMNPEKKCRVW

[2] = target: T4, recombinant human NEP (rhNEP-Endopeptidase activity) (Homo sapiens, UniProt P08473); assay: NEP-endopeptidase activity, FRET substrate Abz-dR-G-L-EDDnp; settings: screening at 50 μM and IC50 comparison, NEP endopeptidase versus AP-N
T4 construct: devoid of their respective N-terminal cytosol and transmembrane segment; purchased R&D Systems
T4 sequence (P08473 52-750 limits assumed): as the sequence (P08473 52-750 limits assumed) above
Description: as §1, §2, §3, §5

| Molecule | inhibitory potency towards hAP-N compared to Opiorphin-QRFSR native peptide (in words) (recombinant human AP-N) | inhibitory preference for human AP-N (in words) (recombinant human AP-N) | inhibitory potency towards hNEP compared to Opiorphin-QRFSR native peptide (in words) (human NEP) | inhibitory potency towards human NEP (in words) (human NEP) | also measured |
| --- | --- | --- | --- | --- | --- |
| QHNPR [NH2-QHNPR-COOH] | equivalent inhibitory potency | inhibitory preference for human AP-N | weak inhibitory potency | weak inhibitory potency |  |
| CCCCCCCC(=O)OC[C@H](NC(=O)[C@H](Cc1ccccc1)NC(=O)[C@H](CCCNC(=N)N)NC(=O)[C@H](CCC(N)=O)NC(=O)CCCCCCNC(=O)[C@@H](N)CS)C(=O)N[C@@H](CCCNC(=N)N)C(=O)O [C[PE6]QRF[S—O-Octanoyl]R, C—(—HN—(CH2)6—CO-)-QRF—S(O-octanoyl)-R] |  |  |  |  | increase inhibitory potency compared to Opiorphin native peptide, Substance P test [1]: at least 5 fold |
| QRFPR | equivalent inhibitory potency | inhibitory preference for human AP-N | weak inhibitory potency | weak inhibitory potency |  |
| dR-dS-dF-dR-dQ ([dR][dS][dF][dR][dQ]) [NH2-dRdSdFdRdQ-COOH] |  | preference for AP-N activity |  | did not display significant inhibitory activity | inhibitory potency towards human AP-N (in words) (recombinant human AP-N): did not display significant inhibitory activity |
| N=C(N)NCCC[C@H](NC(=O)[C@H](CO)NC(=O)[C@H](Cc1ccccc1)NC(=O)[C@H](CCCNC(=N)N)NC(=O)[C@H](CCC(N)=O)NC(=O)[C@@H](N)CS)C(=O)O [CQRFSR-COOH, CQRFSR] |  |  |  | potent dual inhibitors | reinforced inhibitory potency towards hNEP compared to QRFSR native peptide (human NEP; increase vs QRFSR native peptide): 5 fold |
| N=C(N)NCCC[C@H](NC(=O)[C@H](CO)NC(=O)[C@H](Cc1ccccc1)NC(=O)[C@H](CCCNC(=N)N)NC(=O)[C@H](CCC(N)=O)NC(=O)[C@@H](N)CSSC[C@H](N)C(=O)N[C@@H](CCC(N)=O)C(=O)N[C@@H](CCCNC(=N)N)C(=O)N[C@@H](Cc1ccccc1)C(=O)N[C@@H](CO)C(=O)N[C@@H](CCCNC(=N)N)C(=O)O)C(=O)O [[CQRFSR]2] |  |  |  |  | increase inhibitory potency towards hNEP-Endo and CarboxyDi-peptidase activities compared to CQRFSR monomer peptide (human NEP; increase vs CQRFSR monomer): at least 2 fold |
| N=C(N)NCCC[C@H](NC(=O)[C@H](CO)NC(=O)[C@H](Cc1ccccc1)NC(=O)[C@H](CCCNC(=N)N)NC(=O)[C@H](CCC(N)=O)NC(=O)CCCCCCCCCCCCNC(=O)[C@@H](N)Cc1ccc(O)cc1)C(=O)O [Y(PE12)QRFSR-COOH, Y—(—HN—(CH2)12—CO-)-QRFSR] |  |  |  | potent dual inhibitors | inhibitory preference for human NEP endopeptidase activity (in words) [2]: inhibitory preference for human NEP endopeptidase activity; inhibitory potency towards human AP-N (in words) (recombinant human AP-N): potent dual inhibitors |
| QKFSR |  |  | light reduction in inhibitory potency |  |  |
| QRGPR [NH2-QRGPR-COOH] | equivalent inhibitory potency | inhibitory preference for human AP-N | weak inhibitory potency | weak inhibitory potency |  |
| QRFSK |  |  | equivalent inhibitory potency |  |  |
